Patent US20200239524A1 (University of Washington, published 2020)

Target: T1, Bcl2 (UniProt P10415 1-207, limits assumed, biotinylated)
T1 construct: Loaded on streptavidin biosensors; also called Biotinylated Bcl2; target
Experiment: bio-layer interferometry (Octet), Bcl2 on tips, switch with nine residue toehold with and without cognate key
Excerpt: Specificity was designed for using different hydrogen bond networks at the cage-key interface. The latch helix was deleted from the original extended LOCKRₐ model and backbones for a new sixth helix were generated by parametrically sampling the radius, helical phase, and z-offset of the new latch/key helix. The resulting structures were scanned for new hydrogen bond networks spanning the interface between the new sixth helix and cage with all buried polar atoms participating in hydrogen bonds; the remaining interface around the networks was subjected to full sequence and sidechain rotamer optimization using Rosetta™ design. Five designs were selected based on packing quality, sequence dissimilarity, and lack of buried polar atoms not participating in hydrogen bonds. Truncations and toehold variants were assayed for cognate and off target key binding using the GFP pulldown assay from FIG. 1c. […] All bound keyₐ to some extent yet is unknown. The Bim sequence was threaded onto the latches of these three designs as it was for the original design, BimLOCKRₐ (FIG. 2). BimLOCKRb and BimLOCKR, show 22-fold and 8-fold activation, respectively, from their cognate keys given a nine residue toehold on the latch (FIG. 3a,b). BimLOCKRₐ, BimLOCKRb and BimLOCKRc are also orthogonal; each is activated only by its cognate key at concentrations up to 5 uM (FIG. 3c). […]

T1 sequence (P10415 1-207 limits assumed): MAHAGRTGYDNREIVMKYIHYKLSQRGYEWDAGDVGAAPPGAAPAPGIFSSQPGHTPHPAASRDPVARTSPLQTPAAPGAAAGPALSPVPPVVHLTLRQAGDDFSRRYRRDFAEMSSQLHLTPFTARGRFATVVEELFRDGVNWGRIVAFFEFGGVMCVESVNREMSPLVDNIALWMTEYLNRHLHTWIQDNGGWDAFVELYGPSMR

B1: BimLOCKRb (nine residue toehold) (designed binder)
chain: MGSSHHHHHHSSGLVPRGSHMSHAAVIKLSDLNIRLLDKLLQAVIKLTELNAELNRKLIEALQRLFDLNVALVHLAAELTDPKRIADEIKKVKDKSKEIVERAEEEIARAAAESKKILDEAEEEIARAAAESKKILDEGSGSGSDAVAELQALNLKLAELLLEAVAELQALNLKLAELLLEAIAKLQELNIKLVELLTKLTDPATIREAIRKVKEDSERIVAEAERLIAAAKAESERIIREAERLIAAAKAESERIIREGSGSNDPQVAQNQETFIELARDALRLVAENQEAFIEVARLTLRAAALAQEVAIKAVEAASEGGSGSGNEIWIAQELRRIGDEFNAYYAEHKEIHDKLRKKNKKAREDLKKKADE
B1 was tested, and the “fold activation of binding by the cognate key” value was 22 fold.

B2: BimLOCKRc (nine residue toehold) (designed binder)
chain: MGSSHHHHHHSSGLVPRGSHMSLEAVLKLAELNLKLSDKLAEAVQKLAALLNKLLEKLSEALQRLFELNVALVTLAIELTDPKRIADEIKKVKDKSKEIVERAEEEIARAAAESKKILDEAEEEIARAAAESKKILDEGSGSGSDAVAELQALNLKLAELLLEAVAELQALNLKLAELLLEAIAKLQELNIKLVELLTKLTDPATIREAIRKVKEDSERIVAEAERLIAAAKAESERIIREAERLIAAAKAESERIIREGSGSNDPLVARLQELLIEHARELLRLVATSQEIFIELARAFLANAAQLQEAAIKAVEAASENGSGEIWIAQELRRIGDEFNAYYAQNQKLLKDHKRAQEKLNRELEELKKKHKK
notes: also called printed once as 'BimLOCKR,'
In the case of B2, the “fold activation of binding by the cognate key” value is reported as 8 fold.
